We go through 1 molecule from PMC6097844.

The data set addresses Bh-RNase HC (RNase H1 catalytic domain) (Bacillus halodurans, UniProt Q9KEI9 59-196). In words: X-ray crystallography.

Chain of Bh-RNase HC (RNase H1 catalytic domain) (Q9KEI9 59-196): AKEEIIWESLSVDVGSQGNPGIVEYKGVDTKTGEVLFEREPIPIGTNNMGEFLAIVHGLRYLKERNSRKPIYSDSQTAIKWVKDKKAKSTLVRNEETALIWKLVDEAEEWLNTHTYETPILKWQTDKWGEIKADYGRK

B1: RNA/DNA hybrid 6-mer (DNA:RNA)
RNA: ACAUCG
DNA: CGATGT
modifications: strand 1 printed ArCrArUrCG: ribonucleotides at 2-5, deoxy A1 and G6; strand 2 all DNA
B1: the binding result was “binds”.
